T1: Yfr024 SH3 (LSB3_YEAST), P43603
T1 chain: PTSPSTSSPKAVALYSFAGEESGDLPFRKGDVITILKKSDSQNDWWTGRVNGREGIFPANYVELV

T2: Rvs167 SH3 (RV167_YEAST), P39743
T2 chain: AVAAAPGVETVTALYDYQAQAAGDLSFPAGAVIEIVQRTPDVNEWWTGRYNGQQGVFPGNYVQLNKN

T3: Boi1 SH3 (BOI1_YEAST), P38041
T3 chain: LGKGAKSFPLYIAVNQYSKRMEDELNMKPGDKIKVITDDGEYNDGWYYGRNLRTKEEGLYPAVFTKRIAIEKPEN

T4: Yhr016c SH3 (YSC84_YEAST), P32793
T4 chain: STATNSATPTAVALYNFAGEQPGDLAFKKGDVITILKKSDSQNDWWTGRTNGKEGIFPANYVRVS

T5: Boi2 SH3 (BOI2_YEAST), P39969
T5 chain: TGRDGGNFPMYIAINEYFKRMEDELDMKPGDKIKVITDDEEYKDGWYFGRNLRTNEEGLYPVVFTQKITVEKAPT


Legend:
Test in all cases: SPOT array
[1] = target: T1, Yfr024 SH3 (LSB3_YEAST), P43603
[2] = target: T2, Rvs167 SH3 (RV167_YEAST), P39743
[3] = target: T3, Boi1 SH3 (BOI1_YEAST), P38041
[4] = target: T4, Yhr016c SH3 (YSC84_YEAST), P32793
[5] = target: T5, Boi2 SH3 (BOI2_YEAST), P39969

Row | Binder | normalised SPOT signal, Boehringer light units (BLU); mean over the file's lines of this peptide [1] | normalised SPOT signal, Boehringer light units (BLU); mean over the file's lines of this peptide [2] | normalised SPOT signal, Boehringer light units (BLU); mean over the file's lines of this peptide [3] | normalised SPOT signal, Boehringer light units (BLU); mean over the file's lines of this peptide [4] | normalised SPOT signal, Boehringer light units (BLU); mean over the file's lines of this peptide [5]
1 | NQAPLEPLKPTATG [YIR006C 229-242] | 25.1 | 37.7 | 115 | 208 | 14.5
2 | NNNPVPPQKINQPP [YDL203C 198-211] | 212 | 46.9 | 21.2 | 20.2 | 43.4
3 | NIQPDLPPRKIMIP [YBR239C 90-103] | 27200 | 33000 | 1500 | 56900 | 111
4 | NSMPNVPVRLKLHT [YKL208W 152-165] | 20400 | 2480 | 5300 | 11000 | 2750
5 | NIQPNIPLRSYRYL [YHL023C 782-795] | 19500 | 915 | 13200 | 5920 | 760
6 | NSLPSSPKKQPARN [YCL063W 173-186] | 331 | 211 | 57.1 | 199 | 31.8
7 | NLDPNPPVRGENLT [YDL046W 61-74] | 118 | 26.6 | 81.4 | 315 | 18.3
8 | NSPPVYPKRIRHFE [YDR061W 22-35] | 23100 | 3590 | 8630 | 22100 | 3110
9 | NLKPERPSKVSFEM [YEL062W 548-561] | 4070 | 805 | 103 | 1350 | 52.6
10 | NKIPPKPRKVLQLL [YGL076C 93-106] | 1730 | 188 | 63.6 | 172 | 99.5
11 | NMVPLNPNRIIPDE [YDR499W 189-202] | 1110 | 340 | 31.3 | 504 | 143
12 | NKVPTNPKKFKKAP [YDR181C 326-339] | 178 | 20.2 | 126 | 210 | 70.3

The remaining lines, values ahead:

Row | normalised SPOT signal, Boehringer light units (BLU); mean over the file's lines of this peptide [1] | normalised SPOT signal, Boehringer light units (BLU); mean over the file's lines of this peptide [2] | normalised SPOT signal, Boehringer light units (BLU); mean over the file's lines of this peptide [3] | normalised SPOT signal, Boehringer light units (BLU); mean over the file's lines of this peptide [4] | normalised SPOT signal, Boehringer light units (BLU); mean over the file's lines of this peptide [5] | Binder
13 | 194 | 3.8 | 69.3 | 272 | 27.9 | NNTPIVPEKFSNDL [YKR004C 249-262]
14 | 301 | 22.8 | 274 | 67.7 | 45.3 | NSNPIDPLRSDRSV [YNL144C 502-515]
15 | 14200 | 1190 | 180 | 12200 | 42.3 | NPPPVPPPRNVTAM [YNL176C 548-561]
16 | 424 | 26.5 | 44.6 | 74.1 | 27.3 | NNGPKIPQKNTIDS [YKR029C 581-594]
17 | 40900 | 3880 | 7150 | 14500 | 2470 | NSRPQQPERRRFNS [YOR042W 296-309]
18 | 282 | 69.2 | 42.6 | 442 | 65.1 | NSSPMSPLKEKYVL [YOR299W 430-443]
19 | 101 | 40.1 | 43.4 | 293 | 29.9 | NSPPTTPSKDESGP [YMR190C 45-58]
20 | 417 | 128 | 109 | 770 | 72.2 | NLKPFHPPKEKSMN [YPL159C 186-199]
21 | 40800 | 19800 | 2740 | 45600 | 62.5 | NNAPTLPKRKNPKI [YPR055W 477-490]
22 | 292 | 91.3 | 51.4 | 234 | 96.2 | NRKPAEPTKPNNLD [YML075C 1024-1037]

From article PMC314469, “Protein Interaction Networks by Proteome Peptide Scanning” (PLoS Biology, 2004)
